From paper PMC10731242, “Macromolecular crowding potently stimulates DNA supercoiling activity of Mycobacterium tuberculosis DNA gyrase” (The Journal of Biological Chemistry, 2023) come the findings set out here.

The assay has as its target T1, Mycobacterium tuberculosis DNA gyrase subunit A (Mycobacterium tuberculosis, UniProt P9WG47 1-838).
T1 construct: also called Mtb GyrA; Mtb gyrase subunit A
As to the kind of experiment: SEC. Particulars: both partners purified.

T1 sequence (P9WG47 whole entry): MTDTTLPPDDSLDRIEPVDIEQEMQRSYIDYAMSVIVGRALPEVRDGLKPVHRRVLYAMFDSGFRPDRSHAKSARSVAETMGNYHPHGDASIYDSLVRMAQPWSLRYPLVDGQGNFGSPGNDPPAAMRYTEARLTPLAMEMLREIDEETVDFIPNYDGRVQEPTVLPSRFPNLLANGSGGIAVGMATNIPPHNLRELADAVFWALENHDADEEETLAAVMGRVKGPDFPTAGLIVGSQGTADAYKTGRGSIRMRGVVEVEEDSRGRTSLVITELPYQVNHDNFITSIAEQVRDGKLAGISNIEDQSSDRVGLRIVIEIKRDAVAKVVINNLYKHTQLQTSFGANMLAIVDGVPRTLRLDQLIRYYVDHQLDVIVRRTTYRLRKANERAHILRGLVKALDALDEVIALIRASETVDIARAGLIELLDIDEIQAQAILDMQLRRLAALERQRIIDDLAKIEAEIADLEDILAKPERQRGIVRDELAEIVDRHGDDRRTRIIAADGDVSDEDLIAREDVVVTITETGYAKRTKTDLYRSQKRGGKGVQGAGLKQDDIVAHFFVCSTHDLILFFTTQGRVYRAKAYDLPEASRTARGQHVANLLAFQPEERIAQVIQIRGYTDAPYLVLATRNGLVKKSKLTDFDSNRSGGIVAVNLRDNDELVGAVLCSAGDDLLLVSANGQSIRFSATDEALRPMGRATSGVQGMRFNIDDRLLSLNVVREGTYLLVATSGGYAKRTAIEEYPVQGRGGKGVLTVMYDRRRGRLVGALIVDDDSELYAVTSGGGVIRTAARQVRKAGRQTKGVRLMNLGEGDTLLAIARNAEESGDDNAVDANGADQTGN

B1: Mycobacterium tuberculosis DNA gyrase subunit B (enzyme)
chain: MAAQKKKAQDEYGAASITILEGLEAVRKRPGMYIGSTGERGLHHLIWEVVDNAVDEAMAGYATTVNVVLLEDGGVEVADDGRGIPVATHASGIPTVDVVMTQLHAGGKFDSDAYAISGGLHGVGVSVVNALSTRLEVEIKRDGYEWSQVYEKSEPLGLKQGAPTKKTGSTVRFWADPAVFETTEYDFETVARRLQEMAFLNKGLTINLTDERVTQDEVVDEVVSDVAEAPKSASERAAESTAPHKVKSRTFHYPGGLVDFVKHINRTKNAIHSSIVDFSGKGTGHEVEIAMQWNAGYSESVHTFANTINTHEGGTHEEGFRSALTSVVNKYAKDRKLLKDKDPNLTGDDIREGLAAVISVKVSEPQFEGQTKTKLGNTEVKSFVQKVCNEQLTHWFEANPTDAKVVVNKAVSSAQARIAARKARELVRRKSATDIGGLPGKLADCRSTDPRKSELYVVEGDSAGGSAKSGRDSMFQAILPLRGKIINVEKARIDRVLKNTEVQAIITALGTGIHDEFDIGKLRYHKIVLMADADVDGQHISTLLLTLLFRFMRPLIENGHVFLAQPPLYKLKWQRSDPEFAYSDRERDGLLEAGLKAGKKINKEDGIQRYKGLGEMDAKELWETTMDPSVRVLRQVTLDDAAAADELFSILMGEDVDARRSFITRNAKDVRFLDV
notes: also called Mtb GyrB; gyrB
B1: the binding result is listed as “binds”.
